According to patent US20220144940A1 (VIELA BIO, published 2022):
Values joined by “and” are separate entries in the source; they are usually repeats but may differ in a detail not shown here. Identical values can stand only once.

How the values were obtained:
[1] = biological target: T1, HA-tagged human ILT7 on CT-550 cells (human, UniProt P59901 24-499); experiment: flow cytometry on CT-550 cells (human ILT7), top panel, table 'Ec50 (pM)'
T1 construct: whole, on cells; CT-550 cells: CT-125 cells (2B4 murine T-cell hybridoma with mouse FcεRIγ and NFAT-GFP reporter) transduced with HA-tagged human ILT7; also called human ILT7-expressing cells; not shown: HA tag
Description: (§1) Binding of anti-ILT7 variants and isotype controls on human and cynomolgus ILT7 was assessed by flow cytometry analysis using CT-550 and cynoILT7 CT-125 cells respectively. CT-125 cells were used as control. Cells were resuspended in Blocking Buffer (PBS supplemented with 10% FBS) at a concentration of 5 million cells per mL and transferred into a round-bottom 96-well plates (BD Falcon™ Clear Microtest Plate, BD Biosciences) at 100 μL per well. Anti-ILT7 variants and control antibodies were added onto the cells for 30 min at 4° C. on a plate shaker. Cells were washed three times with PBS and resuspended in Blocking Buffer (100 μL/well). Human IgG binding on cell surface was detected using a secondary anti-human IgG antibody conjugated to DyLight 649 (1 in 1000 dilution). Cells were incubated in the dark for 30 min at 4° C. on a plate shaker. Cells were washed three times with PBS and surface fluorescence was acquired using LSRII Flow Cytometry System and FACSDiva Software (both from BD Biosciences).

cynomolgus ILT7 [2] = biological target: T2, cynomolgus ILT7 (cynomolgus, UniProt P59901 24-499 (human entry)); experiment: flow cytometry on CynoILT7 CT-125 cells (cynomolgus ILT7), bottom panel, table 'Ec50 (pM)'
T2 construct: also called cyno ILT7; cynomolgus monkey ILT7
Description: as §1

[3] = biological target: T1, HA-tagged human ILT7 on CT-550 cells; experiment: cell-based or functional assay
cynomolgus ILT7 [4] = biological target: T2, cynomolgus ILT7; experiment: flow cytometry on cynomolgus ILT7-expressing cells, bottom panel, table 'Ec50 (pM)'
Description: as §1

[5] = biological target: T1, HA-tagged human ILT7 on CT-550 cells; experiment: flow cytometry on human ILT7-expressing cells, top panel, table 'Ec50 (pM)'
[6] = biological target: T1, HA-tagged human ILT7 on CT-550 cells; experiment: flow cytometry on CT-550 cells expressing human ILT7, anti-human IgG DyLight 649 detection; table 'Mean Ec50 (nM)', n = 2
Description: as §1
In order to determine the binding EC50 of ILT70019, ILT70028, ILT70052, ILT70076, ILT70080, ILT70083, ILT70089, ILT70100, ILT70137, ILT70142 and ILT70144 on cells expressing human ILT7, the candidates were screened for binding on CT-550 cells by flow cytometry. ILT70080 (EC₅₀=0.28 nM), ILT70083 (EC₅₀=0.37 nM), ILT70137 (EC₅₀=0.41 nM), ILT70144, ILT70142, ILT70052, and ILT70100 bound to human ILT7-expressing cells. […] The anti-ILT7 antibodies 7C7 (7C7 is described above in Example 1) and SBI33 (SBI33 refers to the anti-ILT7 antibody ILT7#33 provided in U.S. Published Application No. 2009/0280128) were used as positive controls.

cynomolgus ILT7 [7] = biological target: T2, cynomolgus ILT7; experiment: cell-based or functional assay

T2 sequence (P59901 other isoform, or with tags, fused parts or gaps limits assumed): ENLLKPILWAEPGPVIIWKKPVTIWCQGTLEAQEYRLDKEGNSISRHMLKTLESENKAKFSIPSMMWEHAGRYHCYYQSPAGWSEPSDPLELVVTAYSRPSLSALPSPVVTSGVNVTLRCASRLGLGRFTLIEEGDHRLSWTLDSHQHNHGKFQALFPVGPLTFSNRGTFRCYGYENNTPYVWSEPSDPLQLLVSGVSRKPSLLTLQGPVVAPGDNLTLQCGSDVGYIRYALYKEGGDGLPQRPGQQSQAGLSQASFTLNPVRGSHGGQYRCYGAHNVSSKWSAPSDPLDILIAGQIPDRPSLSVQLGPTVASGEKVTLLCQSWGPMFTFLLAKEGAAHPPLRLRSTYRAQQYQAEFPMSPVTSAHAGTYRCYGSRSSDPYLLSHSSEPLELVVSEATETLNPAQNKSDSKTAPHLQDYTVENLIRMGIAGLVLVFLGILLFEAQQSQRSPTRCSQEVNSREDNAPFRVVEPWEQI
T1 sequence (P59901 24-499): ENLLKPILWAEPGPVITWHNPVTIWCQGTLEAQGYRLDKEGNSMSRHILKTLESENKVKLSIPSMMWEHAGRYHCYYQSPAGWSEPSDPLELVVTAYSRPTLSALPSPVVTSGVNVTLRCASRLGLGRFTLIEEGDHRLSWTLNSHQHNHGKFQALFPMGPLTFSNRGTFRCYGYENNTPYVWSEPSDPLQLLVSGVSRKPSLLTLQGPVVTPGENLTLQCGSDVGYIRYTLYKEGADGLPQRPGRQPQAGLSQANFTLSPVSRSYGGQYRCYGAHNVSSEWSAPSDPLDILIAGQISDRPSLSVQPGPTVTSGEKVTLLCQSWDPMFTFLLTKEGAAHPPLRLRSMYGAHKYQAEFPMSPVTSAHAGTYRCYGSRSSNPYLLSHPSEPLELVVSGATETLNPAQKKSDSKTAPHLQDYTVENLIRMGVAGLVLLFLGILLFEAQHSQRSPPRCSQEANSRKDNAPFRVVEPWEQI

Binder | EC50 [1] [nM] | EC50 (cynomolgus ILT7 [2]) [nM] | ADCC EC50 [3] | EC50 (cynomolgus ILT7 [4]) [nM] | EC50 [5] [nM] | EC50 [6] [nM] | ADCC EC50 (cynomolgus ILT7 [7]) [nM]
ILT70080.1 (antibody, V domains shown, Engineered (germlined) variant of ILT70080, tested as IgG1) VH: QVQLVQSGAEVKKPGSSVKVSCKASGDSFRNYAVSWVRQAPGQGLEWMGAMMPSFGTREHSQQFQGRVTLTADESTSTAYMELSSLRSEDTAVYYCAGSRDYNAYHFWTGPPDFWGRGTLVTVSS VL: SYVLTQPPSVSVAPGKTARITCGGDSVGSTSVHWYQQKPGQAPVMVMFYNSDRPSGIPERFSGSISGNTATLTISRVEAGDEADYYCQVWDTSSDHPEFGGGTKLTVL | 0.201 | 0.463 | < 14.1 pM and 8 pM and 10 pM |  |  |  | 
ILT70080.2 (antibody, V domains shown, Engineered (germlined) variant of ILT70080, tested as IgG1) VH: QVQLVQSGAEVKKPGSSVKVSCKASGDSFRNYAVSWVRQAPGQGLEWMGAMMPSFGTREHSQQFQGRVTLSADESTSTAYMELSSLRSEDTAVYYCAGSRDYNAYHFWTGPPDFWGRGTLVTVSS VL: SYVLTQPPSVSVAPGKTARITCGGDSVGSTSVHWYQQKPGQAPVMVMFYNSDRPSGIPERFSGSISGNTATLTISRVEAGDEADYYCQVWDTSSDHPEFGGGTKLTVL | 0.225 | 0.503 | < 14.1 pM |  |  |  | 
ILT70080.5 (antibody, V domains shown, Engineered (germlined) variant of ILT70080, tested as IgG1) VH: QVQLVQSGAEVKKPGSSVKVSCKASGDSFRNYAVSWVRQAPGQGLEWMGAMMPSFGTREHSQQFQGRVTLTADESTSTAYMELSSLRSEDTAVYYCAGSRDYNAYHFWTGPPDFWGRGTLVTVSS VL: SYVLTQPPSVSVAPGKTARITCGGDSVGSTSVHWYQQKPGQAPVMVMFYNSDRPSGIPERFSGSNSGNTATLTISRVEAGDEADYYCQVWDTSSDHPEFGGGTKLTVL | 0.503 | 0.612 | < 14.1 pM and 8.6 pM |  |  |  | 
ILT70080.7 (antibody, V domains shown, Engineered (germlined) variant of ILT70080, tested as IgG1) VH: QVQLVQSGAEVKKPGSSVKVSCKASGDSFRNYAVSWVRQAPGQGLEWMGAMMPSFGTREHSQQFQGRVTLTADESTSTAYMELSSLRSEDTAVYYCAGSRDYNAYHFWTGPPDFWGRGTLVTVSS VL: SYVLTQPPSVSVAPGKTARITCGGDSVGSTSVHWYQQKPGQAPVLVMFYNSDRPSGIPERFSGSNSGNTATLTISRVEAGDEADYYCQVWDTSSDHPEFGGGTKLTVL | 0.229 | 0.405 | < 14.1 pM and 7.8 pM |  |  |  | 
ILT70080.3 (antibody, V domains shown, Engineered (germlined) variant of ILT70080, tested as IgG1) VH: QVQLVQSGAEVKAPGTSVKVSCKASGDSFRNYAVSWVRQAPGQGLEWMGAMMPSFGTREHSQQFQGRVTLSADESTSTAYMELSSLRSEDTAVYYCAGSRDYNAYHFWTGPPDFWGRGTLVTVSS VL: SYVLTQPPSVSVAPGKTARITCGGDSVGSTSVHWYQQKPGQAPVMVMFYNSDRPSGIPERFSGSISGNTATLTISRVEAGDEADYYCQVWDTSSDHPEFGGGTKLTVL | 0.198 | 0.467 | < 14.1 pM and 11 pM |  |  |  | 
ILT70080.4 (antibody, V domains shown, Engineered (germlined) variant of ILT70080, tested as IgG1) VH: QVQLVQSGAEVKAPGTSVKVSCKASGDSFRNYAVSWVRQAPGQGLEWMGAMMPSFGTREHSQQFQGRVTLSADESTSTAYMELSSLRSEDTAVYYCAGSRDYNAYHFWTGPPDFWGRGTLVTVSS VL: SYELTQPPSVSVAPGKTAKISCGGDSVGSTSVHWYQQKPGQAPVMVMFYNSDRPSGIPERFSGSISGNTATLTISRVEAGDEADYYCQVWDTSSDHPEFGGGTKLTVL | 0.337 | 0.597 | < 14.1 pM and 11.9 pM |  |  |  | 
ILT70083.3 (antibody, V domains shown, Engineered (germlined) IgG1 variant of ILT70083) VH: EVQLLESGGGLVQPGGSLRLSCAASGFTFSSYAMSWVRQAPGKGLEWVSAISGSGGSTYYADSVKGWFTISRDNSKNTLYLQMNSLRAEDTAVYYCARRTYYYDSDGHSDVFDIWGRGTLVTVSS VL: QSVVTQPPSVSAAPGQKVTISCSGSASNIGSNFVSWYQQLPGTAPKLLIYDNDKRDLGIPDRFSGSKSGTSATLGITGLQTGDEADYYCGTWDTSLTVGVFGGGTKLTVL |  |  | > 89 pM | 0.777 | 0.596 |  | 
ILT70083.1 (antibody, V domains shown) VH: EVQLLESGGGLVQPGGSLRLSCAASGFTFSSYAMSWVRQAPGKGLEWVSAISGSGGSTYYADSVKGWFTISRDNSKNTLYLQMNSLRAEDTAVYYCARRTYYYDSDGHSDVFDIWGRGTLVTVSS VL: QSVVTQPPSVSAAPGQKVTISCSGSASNIGSNFVSWYQQLPGTAPKLLIYDNDKRDLGIPDRFSASISSTSATLGITGLQTGDEADYYCGTWDTSLTVGVFGGGTKLTVL |  |  | > 89 pM |  |  |  | 
ILT70083.4 (antibody, V domains shown, Engineered (germlined) IgG1 variant of ILT70083) VH: EVQLLESGGGLVQPGGSLRLSCAASGFTFSSYAMSWVRQAPGKGLEWVSAISGSGGSTYYADSVKGWFTISRDNSKNTLYLQMNSLRAEDTAVYYCARRTYYYDSDGHSDVFDIWGRGTLVTVSS VL: QSVLTQPPSVSAAPGQKVTISCSGSASNIGSNFVSWYQQLPGTAPKLLIYDNDKRDLGIPDRFSGSKSGTSATLGITGLQTGDEADYYCGTWDTSLTVGVFGGGTKLTVL |  |  | > 89 pM | 0.62 | 0.353 |  | 
ILT70083.5 (antibody, V domains shown, Engineered (germlined) IgG1 variant of ILT70083) VH: not shown VL: QSVVTQPPSVSAAPGQKVTISCSGSASNIGSNFVSWYQQLPGRAPKLLIYDNDKRDLGIPDRFSASISSTSAALAITGLQTEDEADYYCGTWDTSLTVGVFGGGTKLTVL |  |  | > 89 pM | 2.28 | 0.5 |  | 
ILT70083.7 (antibody, V domains shown, Engineered (germlined) IgG1 variant of ILT70083) VH: not shown VL: QSVLTQPPSVSAAPGQKVTISCSGSASNIGSNFVSWYQQLPGTAPKLLIYDNDKRDLGIPDRFSASISSTSATLGITGLQTGDEADYYCGTWDTSLTVGVFGGGTKLTVL |  |  | > 89 pM | 9.47 | 0.905 |  | 
ILT70083.9 (antibody, V domains shown, Engineered (germlined) IgG1 variant of ILT70083) VH: not shown VL: QSVLTQPPSVSAAPGQKVTISCSGSASNIGSNFVSWYQQLPGTAPKLLIYDNDKRDLGIPDRFSGSKSGTSATLGITGLQTGDEADYYCGTWDTSLTVGVFGGGTKLTVL |  |  | > 89 pM | 0.957 | 0.54 |  | 
ILT70083.8 (antibody, V domains shown, Engineered (germlined) IgG1 variant of ILT70083) VH: not shown VL: QSVVTQPPSVSAAPGQKVTISCSGSASNIGSNFVSWYQQLPGTAPKLLIYDNDKRDLGIPDRFSGSKSGTSATLGITGLQTGDEADYYCGTWDTSLTVGVFGGGTKLTVL |  |  | > 89 pM | 0.711 | 0.437 |  | 
ILT70083.6 (antibody, V domains shown, Engineered (germlined) IgG1 variant of ILT70083) VH: not shown VL: QSVVTQPPSVSAAPGQKVTISCSGSASNIGSNFVSWYQQLPGTAPKLLIYDNDKRDLGIPDRFSASISSTSATLGITGLQTGDEADYYCGTWDTSLTVGVFGGGTKLTVL |  |  | > 89 pM | 1.6 | 0.516 |  | 
ILT70083.2 (antibody, V domains shown, Engineered (germlined) IgG1 variant of ILT70083) VH: EVQLLESGGGLVQPGGSLRLSCAASGFTFSSYAMSWVRQAPGKGLEWVSAISGSGGSTYYADSVKGWFTISRDNSKNTLYLQMNSLRAEDTAVYYCARRTYYYDSDGHSDVFDIWGRGTLVTVSS VL: QSVLTQPPSVSAAPGQKVTISCSGSASNIGSNFVSWYQQLPGTAPKLLIYDNDKRDLGIPDRFSASISSTSATLGITGLQTGDEADYYCGTWDTSLTVGVFGGGTKLTVL |  |  | > 89 pM | 15 | 0.863 |  | 
ILT70142 (antibody, V domains shown) VH: QVQLVQSGAEVKKPGASVKVSCKASGYTFTSYGISWVRQAPGQGLEWMGWISAYNGNTNYAQKLQGRVTMTRDTSISTAYMELSRLRSDDTAVYYCARNGLWGWDSDAFDIWGQGTTVTVSS VL: QSVLTQPPSVSAAPGQKVTISCSGSSSNIGNNYVSWYQQLPGTAPKLLIYDNNKRPSGIPDRFSGSKSGTSATLGITGLQTGDEADYYCGTWDSSLSAGVFGTGTQLTVL |  |  |  |  |  | 2.03 | 0.058
